Our source for the protein production values is a protein production outcome set (Wang et al. 2014).

A short description of this data set: label from the status in PepcDB records.

With “MGDSKGRVASAAVSLAEFLESCAGKWFSQRTSYRLGATQDWHQSDQTTLFVDFLAADAPELQALIAEQGLAIAALQSRWEATPQQPASTSLLVFLAEGDRLVHQRGDRCWQGRYQFEGDHRGLTLTTEQPDGQVEERFWFAHPNLRLRTSLIRDRTGLSRSSFYSEIRLGVKPPEPPAEV”, the protein production entry is on record as “failed”. The entry for “MGEEATAVAAAGVRPELVREAEVSLLECKVCFERFGHWQQRRPRNLPCGHVVCLACVAALAHPRTLGLECPFCRRACRACDTSDCLPVLHLLELLGSTLHASPAALSAAPFAPGTLTCYHAFGGWGTLVNPTGLALCPKTGRVVVVHDGKRRVKIFDSGGGGAHQFGEKGDAAHDVKYPLDVAVTNDCHVVVTDAGDCSLKVFDFFGQIKLVVGKQFSLPWGVEITPHNGVLVTDAEAGTLHLLEADFPEGVLRRIERLQAHLCSPRGLAVSWLTGAIAVLEHPCAFGRTGCNNTRVKVFNSTMQLIGQVDSFGLNLLFPSKVTASAVTFDHQGNVIVADTSGPAIVCLGKPEEFPALKPIITHGLSRPVALAFTKENSLLVLDTASHSIKVFKVMEGNGG” is “failed”. Regarding “MGEPNLQLSLLYVIAIFTSAILLSARMSLLITLLAVIAVIYQRFVGSLFDYNNLNTIGNSALLAFLFFVVHRIGQIAVQRFKLLEALTFHQSIELYQLQNINRYILEQIEEGYLVLDENYDIVVSNPAACSLLGIPPQFANEKYPLAKWHADLFEILKFGDLKEGDRFIFESRLSAYSINIKVQHLLVPQQTLTLLILQDAQQINQQAQQLKLAALGQLSASIAHEIRNPLAAIVQANELLKDSDPEQQNTLRHMIGKQTKRIDSIVQDTLGLARSERTHPIQIDVKHFIDTLLEEDLFDVKHSIQLKISDSSLKFLFDEKQLRQVMINLVRNALRHNATDSPYITINIHSQTNKIYIDVIDYGEGVSKRDISQLFKPFFSTEINGTGLGLYLSHSFCEANHAKLTYVEQKQGACFRIECPIIY”, the protein production result is “failed”.

As to “MGESVRTLSYGSWPSPVDAALAAAHDGRPDDVGFVGDEVWWTAPRPTEGGRRTLVRRHADGTEEPVLPAPWNVRSRVIEYGGRPWGAATTDSGPLVVFVNFADQRLYAFTPGGGEPRPLTPLSAVGGGLRWIEPDPRPERGEVWCVLEEFTGEGPTDVRRVPVAVPLDGSAADDRGAVRELAPERHRFVTGPRLSPDGRRAAWLAWDHPRMPWDGTELIVAEVGPEGTFQAARTVAGGPEESIAQADWAPDGTLLYASDRTGWWNLYRDGRPLCPREEEFGGPLWKLGQRWFAPLDSGLIAVLHGRGAAVLGILDPETGEVVDAAGPWTEFAPALAAHGERVAAVGASPRSGYEVVELDARTGRARVIGAPHEDATDPEFYPRPRIRTFTGPGGREIHAHVYPPHHPGCRAPDGELPPYVIWAHGGPTSRSPLVLDLEIAYFTSRGIGVAEVNYGGSSGHGREYRNRLREQWGVVDVEDCAAVALALADEGTADRARLAVRGGSAGGWTSAASLATTDVYACGTISYPILDLTGWGTGETHDFESQYLESLIGPYAEVPDRYTDRSPAEHAERVTAPFLLLQGLDDVICPPVQCERFLDRMAGRGVPHAYLAFEGEGHGFRRAETMVRALEAELSLYAQVFGLTPPGVPVLELTR”, the protein production entry is listed as “failed”.

Turning to “MGETAGREHGTVTRSAEYIGSFPVDDSCLDDQIQQLHTQLKSLKNCKSKRTVSLRFSVKGVKVYDEDETTLLMAHAMCRVSLSTARPSDAQFAFASHNPGNSDAQLYCHLFRARHARAAQFLNLLLCRCFQLYFLEKHPEEAQEECSGKKPSRAPSLLNQGFPLSVSALVSFRRAPTQGLLPGAKLFSQQSTEQVSSPEEGPTSSPTIVRKMAIRTKELRSGAYRSFTFTPLKQRHLQDKLSAPQGGMSVHRTLSRLKEFLRKGTSHCKGMHVSSSQFGRNRRSTGSSCVVLGWRV”, the protein production result was “failed”. The value for “MGEVKDLGMADHGGFDLKIGARVVLEDVKLGDSIAVNGTCLTVTEFNAEEFTVGLAPETLRKTSLEELKKGSPVNLERALQPVSRMGGHVVQGHVDGTGVIESMEVEGDSLWVKVKADKGLLKYIVPKGFVAVDGTSLTVVDVFDEESCFNFMMIAYTQQNVVIPTKKIGQKVNLEVDIMGKYVERLLTSGGFSKGN” was “failed”; that for “MGFHDYIEETKNIFNRLYPDNKITDIDYEGPTIVVYTKDPELFAKRDDLVRQIAQEIRRRIAIRSDPSILLPEDQARESIEKIIPKEAGLEDIYFEPDTGEVIIELDEPSIVTARGTDYVQEIKSRTQWSPRIVRAPPMYSRTVKEVREFMREVKQERREFLHNLGVKLSGPPMVGETWVRLTALGGHSEVGRSATLVSTKNSKVLIDCGMMNVGPDADPWDAAPYLYVPEVQPLSTIDAVILTHAHLDHSGLLPLLFKYGYDGPVYMTPPTRDLAALLQNDYIKVARMEGGKVPYESKYIREELKHTITLRYGETTDITRDMRLTFYNAGHILGSASGHLHIGDGLYNVVLSGDVKFEKTWLFNPANNKFPRAETFMTESTYGGRDDYSFTREEATQTLIDVINRTHDRGGSVLIPVFAVGRSQEVMIVLEDAMRNGRIPQMDVYLDGMIMEAPAIHAAYPEYLNKELREAIMVKKENPFLSPIFKKVETRDRGRK” was “failed”.

Take “MGFHLRGAIDIPEWLDNVSIISRDGNKELVSILKSQLEGYKIDVNSDPSLAKYWLIINSSSLQQQIVSIGASTNPRQYQLILTIEFMLQTPKGQIIKTPRKVNVSRQLTVNNDRILGSNEEQALLVSEMRRDAAIQIINRLNRPLEHHHHHH”: the protein production entry was “not failed”.

As to “MGFLNKLLSSEGPRKPKVKFDLQKCKVLLKGGENRIRLQKSKLAVCNLLASPVPALKNLFNKNSVKLQQREVAVLLEGGKDELARIRAEQMVRDELLIESYEIVEVLCETLLTRHNLLALNFHATKENPYPPLPPEIAEAVCSIAFASCRLDASELQTLTEMLASRFGPELIDSACAGQPSQRVWGVNSLVNPRLYSKLLYSVPDGNVVLQKLQDIADMFQLEWKAPAEFEELKDHSVLDSTASTPVFSGNAQRARYLPEASSFSDEKIGDDVFCTNESEQTEEGRDPSDDLSARLEALKRNR”, the protein production entry is on record as “failed”. The entry for “MGFMIEHWDFSTPMATQETTTAEHIQPNHWYHCERLHPDIRSWLEDNHVPRATVDHLLADESRPSFHPLDDDNFMLILRGINMNENASPEDMLSIRILYFQGALISTRKIPSRAIMEIRQALAEHKGPKSLASLLNQIIEGLNGKIDLYLDTIEETLNEFDVNDESTYNHIAAQKALISIKRFIRPQQYAIRDLIESESELVTSRPHQYRFAHNNITRINETIEFYLGEVALFQDEIKHNRDEKTNKNSYLFTLVATIFLPTSFLTGLL” is “not failed”; for “MGFSKVPLIWLCHPKIIAIDSKHVEVRIPLRRRTKNHLNSMYFGALAVGADVAGGFLAMSKAQEKGEAISLAFKGVKAEFLKRPEADVHFVCNDGHVIDEMLDHTIATGERVNRDVKIIALCPSLHGQEPMAEFALTLSLEHHHHHH” it is “failed”; for “MGFTQNSVYFLNVSEALATPQDKLHTVRLFGTVAADGLTMLDGAPGVRFRLEDKDNTSKTVWVLYKGAVPDTFKPGVEVIIEGGLAPGEDTFKARTLMTKCPLEHHHHHH” it is “not failed”. For the sequence “MGFYLGITALKSIGNNKNNNIDNENNHQAKILTFPVSFTCRTFLPARGDILQGTVKKVLWNGAFIRSGPLRYAYLSLLKMPHYHYVHSPLSEDEKPHFQKDDLSKIAVGVVVRFQVLAVRFKERPHKRRNDYYVLATLEGNGSFGP”, the protein production result was “not failed”. Take “MGFYQGPDNRKITGGLKGKHRDKRKYEIGNPPTFTTLSAEDIRIKDRTLGGNFKVRLKYTTTANVLDPATNTAKKVKILEILETPANKELARRGIIIRGAKIRTEAGLAVVTSRPGQDGVINAVLLKNESQRSLEHHHHHH”: the protein production entry was “failed”. The entry for “MGGGGHGGGITYKGVTVHTPKTWHTVTGKGLCAVMWFWILYRAKQDGPVVMGWRHPWDGHGDHGHGDHH” is “failed”; for “MGGIIIIDVHCHLDFKDFNRNREEVIERARSKLRAVIDSGVGLGGNRRALELASLNPGFICPTMGFHPVDASKARQDLIGEVVSQIESNIDLIVAVGETGMDFHHTRDEEGRRRQEETFRVFVELAAEHEMPLVVHARDAEERALETVLEYRVPEVIFHCYGGSIETARRILDEGYYISISTLVAFSEHHMELVRAIPLEGMLTETDSPYLSPFRGKRNEPAFVEEAVRAIARIKDMDLEDVDSITTANAERVFGL” it is “failed”; for “MGGKYSRGEERRPLGFPGFSALCCCQKTNREETPLGFCDIKARRSNLSFGREDPAYLDMAYFPDNDLHMAACAGDLPFVRLYFTLGKYEVNHRDRENRNAMHFACFYGHLELVIYLWRRGCEINVCDNHNITPLMKAVQSWEDKIVCFLLEHHANLHIKDSMGNTALHYAVYSGNLATAARLLQYGADIEERTKDNLTPLLLALRENRLKMAQFLVRMEASVHAVDSQRRNSLMYAVRCDSPVMVNLILQQGVDINLKDLFGWTALRYAIEGDRDVRTMLLELRKRNRAFQSSENSSIRLINKADAEVTSPTANEKVIEMQDPFTTNEASVEKTQTRRPAESELEVFSLEEEISYKETINNLQQNPGQRSAKTDAATENRSP” it is “failed”.

Consider “MGGSFYPCLSVSKRAIGKNTAYSTLYYLQYTIKKASFSNVIYTSENNNIFRVSLLTFSFFYFTRTVKNSHMPTTTLEQQRTRQGVLFALGAYTIWGIAPIYFKTISEVSPLEILSHRVIWSFFFLAALLSFSKGWATVINTLKDKKKMTYLITTSVLIGANWLIFIWAVNAGHMLDASLGYYINPLLNVVLGMIFLGERLRRLQWVAVLFASAGVLIQLITFGSIPVVAIALACSFGFYGLLRKKVAMDAQTGLFIETLVMLPLTLIYLLFIADSATSNFSENTLNLNLLLIAAGIITTVPLLCFTGAATRLKLSTLGFFQYIGPSLMFLLAVGLYGEEFSADKAITFGFIWGALVIFTTDAFMARNKKNK”, for which the protein production entry is given as “failed”. As to “MGHAALDAVLPDGGWPRRALTELLLPAHGIGEIALLLPTLARMTGAGSRVVLVAPPYVPYAPAWQAGGVALQQLEIVQAEPRDALWAFEQCLRSGACAAVLGWPQTGDARALRRLQVAADSGNCCAFALRDRRHAVNASPLEHHHHHH”, the protein production result is listed as “failed”.

Turning to “MGHETKAQLKDYVEVKIMKIKTTVAALSVLSVLSFGAFAADSIDAAQAQNREAIGTVSVSGVASSPMDIREMLNKKAEEKGATAYQITEARSGDTWHATAELYKLEHHHHHH”, the protein production entry is “not failed”. The value for “MGHHHHHHHHHHSSGHIDDDDKHMEVSVLIPAAGNGLRLGRGPKAFLQVGGRTLLEWTLAAFRDAAEVLVALPPGAEPPKGLGAVFLEGGATRQASVARLLEAASLPLVLVHDVARPFVSRGLVARVLEAAQRSGAAVPVLPVPDTLMAPEGEAYGRVVPREAFRLVQTPQGFFTALLREAHAYARRKGLEASDDAQLVQALGYPVALVEGEATAFKITHPQDLVLAEALARVWSA” was “not failed”. The value for “MGHHHHHHSHAESHLQSSLITASQFFEIWLHFDADGSGYLEGKELQNLIQELQQARKKAGLELSPEMKTFVDQYGQRDDGKIGIVELAHVLPTEENFLLLFRCQQLKSCEEFMKTWRKYDTDHSGFIETEELKNFLKDLLEKANKTVDDTKLAEYTDLMLKLFDSNNDGKLELTEMARLLPVQENFLLKFQGIKMCGKEFNKAFELYDQDGNGYIDENELDALLKDLCEKNKQDLDINNITTYKKNIMALSDGGKLYRTDLALILCAGDN” was “not failed”; that for “MGHHHHHHSHGQTFAGVIRGVQSYGFFVQIEALQVEGLVHVSSPKDDWYEYRSRQQRLIGRKNRRQFGLGDRVEVEIRNVDYYRQQIDLGVLPLPEAQSETSDREP” was “not failed”; that for “MGHHHHHHSHKPIKVEKTVTINKPADELYRYWHNFENLPTFMKHLKSVKVYNEKRSHWIANAPLGNSVEWDADILEDRENEFISWASAEGADVENSGFVRFQKAPGDVPGQAASRLRGTEVKVVLEYNLPGGALAAVVAKLFGEEPEQQIGDELRRFKM” was “not failed”.
